Experimental findings from the supplement of paper PMC9112550, “Optimization of the antimicrobial peptide Bac7 by deep mutational scanning” (BMC Biology, 2022) are described below.

The data set deals with Escherichia coli TOP10. Put plainly: shrunken log2 fold change of peptide-encoding DNA abundance (4.5 h post-induction vs induction); higher = less antimicrobial activity (less host growth inhibition). As to conditions: time post-induction: 4.5 h; library: site-saturation at positions 5, 18, 19, 20.
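Further: peptides expressed intracellularly from a pBAD plasmid library in pooled LB shake-flask culture, induced with 0.3% L-arabinose, DNA abundance read by NGS, three biological replicates, DESeq2 with apeglm shrinkage.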

For RRIRHRPPRLPRPRPRPIRPPRP, the “shrunken log2 fold change” value was -0.125.
The value for RRIRVRPPRLPRPRPRPEQEPRP was -0.0189; that for RRIRARPPRLPRPRPRPTHLPRP was 0.326; that for RRIRKRPPRLPRPRPRPCRRPRP was 0.112.
Consider RRIRMRPPRLPRPRPRPYSDPRP, for which the “shrunken log2 fold change” value was -0.329.
The value for RRIRKRPPRLPRPRPRPDWCPRP was 0.292; that for RRIRWRPPRLPRPRPRPLLDPRP was 0.0164.
Regarding RRIRARPPRLPRPRPRPQCMPRP, the “shrunken log2 fold change” value amounted to 0.153.
Regarding RRIRERPPRLPRPRPRPVRAPRP, the “shrunken log2 fold change” value was 0.287.
With RRIRIRPPRLPRPRPRPRFLPRP, the “shrunken log2 fold change” value is -0.216.
On to RRIRMRPPRLPRPRPRPYSSPRP, for which the “shrunken log2 fold change” value is -0.115.
In the case of RRIRYRPPRLPRPRPRPYCLPRP, the “shrunken log2 fold change” value was -1.15.
For the sequence RRIRARPPRLPRPRPRPRSYPRP, the “shrunken log2 fold change” value was found to be 0.242.
For RRIRGRPPRLPRPRPRPLLFPRP, the “shrunken log2 fold change” value stood at 0.873.
The value for RRIRPRPPRLPRPRPRPNMFPRP was -0.254; that for RRIRKRPPRLPRPRPRPLNLPRP was -0.123.
Under RRIRTRPPRLPRPRPRPDMGPRP stands -0.0558; under RRIRMRPPRLPRPRPRPMCNPRP, -0.00494; under RRIRGRPPRLPRPRPRPQLIPRP, 0.139.
On to RRIRLRPPRLPRPRPRPYQIPRP, for which the “shrunken log2 fold change” value is -0.489.
Regarding RRIRIRPPRLPRPRPRPYRYPRP, the “shrunken log2 fold change” value is -0.127.
RRIRCRPPRLPRPRPRPYLKPRP: the “shrunken log2 fold change” value is -1.1.
With RRIRWRPPRLPRPRPRPVALPRP, the “shrunken log2 fold change” value amounted to 0.459.
Take RRIRKRPPRLPRPRPRPCLVPRP: the “shrunken log2 fold change” value was determined as 0.123.
The value for RRIRSRPPRLPRPRPRPPGNPRP was -0.0179; that for RRIRYRPPRLPRPRPRPMRPPRP was 0.512; that for RRIRYRPPRLPRPRPRPMIHPRP was -0.0658.
Take RRIRMRPPRLPRPRPRPRFWPRP: the “shrunken log2 fold change” value stood at 0.522.
In the case of RRIRLRPPRLPRPRPRPWELPRP, the “shrunken log2 fold change” value was -0.00192.
In the case of RRIRARPPRLPRPRPRPMNIPRP, the “shrunken log2 fold change” value was -0.583.
Consider RRIRIRPPRLPRPRPRPGPAPRP, for which the “shrunken log2 fold change” value was 0.383.
Under RRIRKRPPRLPRPRPRPEVKPRP stands 0.085; under RRIRMRPPRLPRPRPRPNQYPRP, -0.218; under RRIRKRPPRLPRPRPRPQRMPRP, 0.408.
RRIRWRPPRLPRPRPRPVHSPRP: the “shrunken log2 fold change” value is -0.37.
On to RRIRQRPPRLPRPRPRPCAAPRP, for which the “shrunken log2 fold change” value was 0.339.
Regarding RRIRHRPPRLPRPRPRPPYRPRP, the “shrunken log2 fold change” value is -0.399.
Under RRIRHRPPRLPRPRPRPSLWPRP stands 0.257; under RRIRLRPPRLPRPRPRPDVQPRP, 0.0463; under RRIRNRPPRLPRPRPRPLGNPRP, -0.248.
RRIRKRPPRLPRPRPRPCFQPRP: the “shrunken log2 fold change” value is -0.112.
In the case of RRIRCRPPRLPRPRPRPVMRPRP, the “shrunken log2 fold change” value was 0.16.
The value for RRIRSRPPRLPRPRPRPGLHPRP was 0.186; that for RRIRNRPPRLPRPRPRPFFSPRP was -0.14.
Consider RRIRMRPPRLPRPRPRPGPIPRP, for which the “shrunken log2 fold change” value turned out to be 0.115.
Under RRIRLRPPRLPRPRPRPDITPRP stands -0.00678; under RRIRPRPPRLPRPRPRPMEFPRP, 0.00564.
Under RRIRERPPRLPRPRPRPDNAPRP stands -0.245; under RRIRFRPPRLPRPRPRPKKFPRP, -0.128; under RRIRDRPPRLPRPRPRPIWKPRP, -0.00783.
Under RRIRRRPPRLPRPRPRPMGNPRP stands 0.0273; under RRIRLRPPRLPRPRPRPCMHPRP, -0.0286.
Turning to RRIRERPPRLPRPRPRPGNDPRP, the “shrunken log2 fold change” value is -0.0081.
Under RRIRRRPPRLPRPRPRPEWDPRP stands 0.426; under RRIRARPPRLPRPRPRPYVRPRP, -0.377; under RRIRDRPPRLPRPRPRPSANPRP, 0.119.
Turning to RRIRQRPPRLPRPRPRPWHLPRP, the “shrunken log2 fold change” value is -0.0241.
RRIRARPPRLPRPRPRPPDCPRP: the “shrunken log2 fold change” value worked out at 0.56.
As to RRIRARPPRLPRPRPRPVQQPRP, the “shrunken log2 fold change” value was 0.954.
Under RRIRTRPPRLPRPRPRPQDEPRP stands -0.152.
With RRIRQRPPRLPRPRPRPVCYPRP, the “shrunken log2 fold change” value was -0.636.
For the sequence RRIRNRPPRLPRPRPRPPWLPRP, the “shrunken log2 fold change” value was found to be 0.482.
Take RRIRCRPPRLPRPRPRPLQSPRP: the “shrunken log2 fold change” value was 0.113.
With RRIRFRPPRLPRPRPRPDFYPRP, the “shrunken log2 fold change” value is -0.105.
Regarding RRIRVRPPRLPRPRPRPSDDPRP, the “shrunken log2 fold change” value is -0.417.
Under RRIRNRPPRLPRPRPRPIIAPRP stands -0.127; under RRIRGRPPRLPRPRPRPLGKPRP, 0.362; under RRIRGRPPRLPRPRPRPGTWPRP, 0.255.
As to RRIRARPPRLPRPRPRPENHPRP, the “shrunken log2 fold change” value is -0.102.
As for RRIRRRPPRLPRPRPRPMPDPRP, the “shrunken log2 fold change” value turned out to be 0.442.
Regarding RRIRARPPRLPRPRPRPLQKPRP, the “shrunken log2 fold change” value was found to be 0.586.
The value for RRIRVRPPRLPRPRPRPMDCPRP was -0.0385; that for RRIRSRPPRLPRPRPRPSLFPRP was 0.0853.
For the sequence RRIRLRPPRLPRPRPRPGTMPRP, the “shrunken log2 fold change” value was -0.0422.
Regarding RRIRMRPPRLPRPRPRPLTSPRP, the “shrunken log2 fold change” value turned out to be 0.0851.
Regarding RRIRNRPPRLPRPRPRPVKSPRP, the “shrunken log2 fold change” value is 0.00699.
With RRIRIRPPRLPRPRPRPEVGPRP, the “shrunken log2 fold change” value was found to be 0.0138.
Regarding RRIRYRPPRLPRPRPRPACMPRP, the “shrunken log2 fold change” value is -0.0495.
For the sequence RRIRWRPPRLPRPRPRPDFNPRP, the “shrunken log2 fold change” value was -0.0747.
As for RRIRNRPPRLPRPRPRPSRWPRP, the “shrunken log2 fold change” value came to 0.417.
RRIRIRPPRLPRPRPRPMYIPRP: the “shrunken log2 fold change” value was -0.0364.
With RRIRFRPPRLPRPRPRPDCDPRP, the “shrunken log2 fold change” value was -0.147.
With RRIRWRPPRLPRPRPRPDFGPRP, the “shrunken log2 fold change” value was -0.0549.
Regarding RRIRIRPPRLPRPRPRPKWQPRP, the “shrunken log2 fold change” value was -0.114.
The value for RRIRYRPPRLPRPRPRPQHPPRP was -0.595; that for RRIRYRPPRLPRPRPRPSGRPRP was -0.261.
The value for RRIRRRPPRLPRPRPRPIMNPRP was -0.347.
The value for RRIRIRPPRLPRPRPRPKYKPRP was -0.775; that for RRIRNRPPRLPRPRPRPEPGPRP was 0.321; that for RRIRWRPPRLPRPRPRPYSQPRP was -0.425.
Take RRIRRRPPRLPRPRPRPFFPPRP: the “shrunken log2 fold change” value amounted to 0.263.
Regarding RRIRERPPRLPRPRPRPDDQPRP, the “shrunken log2 fold change” value is -0.252.
The value for RRIRQRPPRLPRPRPRPTNCPRP was -0.33; that for RRIRNRPPRLPRPRPRPNNVPRP was -0.943.
For the sequence RRIRTRPPRLPRPRPRPSFRPRP, the “shrunken log2 fold change” value is -1.02.
RRIRGRPPRLPRPRPRPGANPRP: the “shrunken log2 fold change” value stood at 0.874.
For RRIRSRPPRLPRPRPRPKTYPRP, the “shrunken log2 fold change” value was -0.543.
As for RRIRERPPRLPRPRPRPVLHPRP, the “shrunken log2 fold change” value is -0.0594.
For RRIRIRPPRLPRPRPRPFNPPRP, the “shrunken log2 fold change” value was -0.0657.
The value for RRIRGRPPRLPRPRPRPHMTPRP was 1.45; that for RRIRFRPPRLPRPRPRPYNLPRP was -0.322; that for RRIRLRPPRLPRPRPRPLEIPRP was -0.0425.
The value for RRIRTRPPRLPRPRPRPLCIPRP was -0.693.
For RRIRSRPPRLPRPRPRPFEQPRP, the “shrunken log2 fold change” value is -0.0212.
In the case of RRIRDRPPRLPRPRPRPAIWPRP, the “shrunken log2 fold change” value is 0.24.
In the case of RRIRHRPPRLPRPRPRPTAHPRP, the “shrunken log2 fold change” value was -0.173.
For the sequence RRIRDRPPRLPRPRPRPNCDPRP, the “shrunken log2 fold change” value was -0.144.
Take RRIRRRPPRLPRPRPRPNQCPRP: the “shrunken log2 fold change” value was -0.0957.
Turning to RRIRMRPPRLPRPRPRPIRTPRP, the “shrunken log2 fold change” value was -0.0696.
Under RRIRCRPPRLPRPRPRPNYLPRP stands -0.797; under RRIRGRPPRLPRPRPRPNHKPRP, -0.195.
For RRIRGRPPRLPRPRPRPEIHPRP, the “shrunken log2 fold change” value is 1.13.
For the sequence RRIRARPPRLPRPRPRPMDPPRP, the “shrunken log2 fold change” value is 0.0606.
Regarding RRIRTRPPRLPRPRPRPMVFPRP, the “shrunken log2 fold change” value came out at 0.0283.
Turning to RRIRFRPPRLPRPRPRPHIEPRP, the “shrunken log2 fold change” value is -0.0641.
The value for RRIRLRPPRLPRPRPRPFVQPRP was -0.284; that for RRIRYRPPRLPRPRPRPGVPPRP was 0.241.
As for RRIRDRPPRLPRPRPRPHQRPRP, the “shrunken log2 fold change” value amounted to 0.0159.
In the case of RRIRERPPRLPRPRPRPVHNPRP, the “shrunken log2 fold change” value was -1.53.
As to RRIRSRPPRLPRPRPRPFDQPRP, the “shrunken log2 fold change” value is -0.256.
On to RRIRERPPRLPRPRPRPGQAPRP, for which the “shrunken log2 fold change” value was -0.00166.
With RRIRGRPPRLPRPRPRPTWVPRP, the “shrunken log2 fold change” value came out at 0.493.
In the case of RRIRNRPPRLPRPRPRPLREPRP, the “shrunken log2 fold change” value worked out at 0.128.
Regarding RRIRGRPPRLPRPRPRPWGYPRP, the “shrunken log2 fold change” value was 0.094.
Under RRIRTRPPRLPRPRPRPCEWPRP stands 0.013.
